From patent publication US20170044515
Positions count from the first letter of the chain named.

What was measured:
[1] = biological target: T1, Histatin-1b
T1 chain: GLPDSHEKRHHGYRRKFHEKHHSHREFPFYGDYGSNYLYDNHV

[2] = biological target: T2, Salusin substrate (H. sapiens)
T2 chain: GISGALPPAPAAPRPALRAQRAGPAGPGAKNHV

[3] = biological target: T3, Rat neuromedin U substrate
T3 chain: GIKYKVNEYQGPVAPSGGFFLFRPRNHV

[4] = biological target: T4, kB1-EHV (not fully specified)
T4 chain: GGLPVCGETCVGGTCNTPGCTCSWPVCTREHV

[5] = biological target: T5, GV-10
T5 chain: GLPPPIFNHV

[6] = biological target: T6, Histatin-3a
T6 chain: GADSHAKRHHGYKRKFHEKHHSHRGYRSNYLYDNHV

[7] = biological target: T7, Histatin-1a
T7 chain: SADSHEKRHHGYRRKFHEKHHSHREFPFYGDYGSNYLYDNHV

[8] = biological target: T8, RV-10
T8 chain: RVTRPVNHV

[9] = biological target: MrIA conotoxin substrate
[10] = biological target: modified GFP ending with Asn-His-Val at the C-terminus and starting with Gly-Ile at the N-terminus
[11] = biological target: T9, SA-kB1-NHV
T9 chain: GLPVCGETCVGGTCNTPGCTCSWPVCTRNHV

[12] = biological target: T10, Neuromedin U substrate (H. sapiens)
T10 chain: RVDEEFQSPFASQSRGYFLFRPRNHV

[13] = biological target: T11, SFTI-DHV
T11 chain: GRCTKSIPPICFPDHV

[14] = biological target: T12, kB1-N* (not fully specified)
T12 chain: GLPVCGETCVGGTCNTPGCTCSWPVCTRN

[15] = biological target: T13, kB1-QHV (not fully specified)
T13 chain: T4 chain with E30Q

[16] = biological target: T14, kB1-AHV (not fully specified)
T14 chain: T4 chain with E30A

[17] = biological target: T15, Apelin substrate (H. sapiens)
T15 chain: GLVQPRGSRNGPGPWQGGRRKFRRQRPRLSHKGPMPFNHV

[18] = biological target: T16, SFTI-NHV
T16 chain: GRCTKSIPPICFPNHV

[19] = biological target: T17, Galanin substrate (H. sapiens)
T17 chain: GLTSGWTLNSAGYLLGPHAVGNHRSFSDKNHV

[20] = biological target: T18, kB1-NHVI (not fully specified)
T18 chain: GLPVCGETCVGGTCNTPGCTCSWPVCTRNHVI

[21] = biological target: T19, SV-10
T19 chain: SLPPPIFNHV

[22] = biological target: T20, Histatin-3b
T20 chain: T6 chain with A2L

[23] = biological target: T21, kB1-NHV (not fully specified)
T21 chain: T9 chain

[24] = biological target: T22, kB1-NHVIA (not fully specified)
T22 chain: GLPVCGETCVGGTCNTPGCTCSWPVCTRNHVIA

[25] = biological target: T23, Thanatin analog
T23 chain: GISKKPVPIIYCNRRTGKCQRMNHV

[26] = biological target: T24, EV-9
T24 chain: EINSTEINHV

[27] = biological target: T25, kB1-NH (not fully specified)
T25 chain: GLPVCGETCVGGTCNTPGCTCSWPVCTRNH

[28] = biological target: T26, HV-10
T26 chain: HLPPPIFNHV

[29] = biological target: T27, kB1-DHV (not fully specified)
T27 chain: T4 chain with E30D

B1: butelase 1 (active enzyme purified from pods of Clitoria ternatea) (protein)
chain: VEGTRWAVLVAGSKGYVNYRHQADVCHAYQILKKGGLKDENIIVFMYDDIAYNESNPHPGVIINHPYGSDVYKGVPKDYVGEDINPPNFYAVLLANKSALTGTGSGKVLDSGPNDHVFIYYTDHGGAGVLGMPSKPYIAASDLNDVLKKKHASGTYKSIVFYVESCESGSMFDGLLPEDHNIYVMGASDTGESSWVTYCPLQHPSPPPEYDVCVGDLFSVAWLEDCDVHNLQTETFQQQYEVVKNKTIVALIEDGTHVVQYGDVGLSKQTLFVYMGTDPANDNNTFTDKNSLGTPRKAVSQRDADLIHYWEKYRRAPEGSSRKAEAKKQLREVMAHRMHIDN
B1 was tested, and the Yield (%) of cyclization [1] was 90%, the “cyclization yield within 5 min” value [2] was “butelase 1 achieved >95% cyclization yields within 5 min for all peptides tested” and the Km [3] was 20.2 µM. The “cyclization yield within 5 min” value [3] was “butelase 1 achieved >95% cyclization yields within 5 min for all peptides tested”, the kcat [3] was 26.6 s⁻¹ and the kcat/Km [3] was 1.31e+06 M^-1 S^-1. For the same protein, the Cyclization yield (%) at 4 h [4] was under 1%, the “cyclization after 4 h (MS)” value [4] was “No cyclization of kB1-AHV, kB1-QHV or kB1-EHV was observed after incubating with butelase 1 for 4 h” and the Yield (%) of dimerization and cyclization, product Cyclo([..])2 [5] was 50%. For the same protein, the Yield (%) of cyclization [6] was 90%, the Yield (%) of cyclization [7] was 90% and the Yield (%) of dimerization and cyclization, products Cyclo(RVTRPVN), Cyclo(RVTRPVN)2 [8] was 20%. For the same protein, the Km [9] was 7.9 µM, the Yield (%) of cyclization [9] was 95% and the kcat [9] was 2.2 s⁻¹. For the same protein, the kcat/Km [9] was 278000 M⁻¹ s⁻¹, the “cyclization yield within 15 min (SDS page, ESI-MS)” value [10] was “The cyclization reaction completed within 15 min with >90% yield” and the Cyclization yield (%) at 0.2 h [11] was over 95%. The Km [11] was 31.5 µM, the “fold change of catalytic efficiency against kB1-NHV” value [11] was “a 50-fold improvement in the catalytic efficiency of SA-kB1-NHV compared to kB1-NHV” and the kcat [11] was 17.1 s⁻¹. For the same protein, the kcat/Km [11] was 542000 M⁻¹ s⁻¹, the Km [12] was 8.7 µM and the “cyclization yield within 5 min” value [12] was “butelase 1 achieved >95% cyclization yields within 5 min for all peptides tested”. It also gave a kcat [12] of 5.78 s⁻¹, a kcat/Km [12] of 664000 M^-1 S^-1 and a Cyclization yield (%) at 4 h [13] of under 10%. For the same protein, the Cyclization yield (%) at 4 h [14] was under 10%, the Cyclization yield (%) at 4 h [15] was under 1% and the “cyclization after 4 h (MS)” value [15] was “No cyclization of kB1-AHV, kB1-QHV or kB1-EHV was observed after incubating with butelase 1 for 4 h”. The Cyclization yield (%) at 4 h [16] was under 1%, the “cyclization after 4 h (MS)” value [16] was “No cyclization of kB1-AHV, kB1-QHV or kB1-EHV was observed after incubating with butelase 1 for 4 h” and the Km [17] was 6.7 µM. The “cyclization yield within 5 min” value [17] was “butelase 1 achieved >95% cyclization yields within 5 min for all peptides tested”, the kcat [17] was 5.78 s⁻¹ and the kcat/Km [17] was 859000 M^-1 S^-1. For the same protein, the Cyclization yield (%) at 0.8 h [18] was over 95%, the Km [18] was 51 µM and the “catalytic efficiency (kcat/Km)” value [18] was “catalytic efficiency of 11,700 M^-1 s^-1”. It also gave a kcat [18] of 0.6 s⁻¹, a kcat/Km [18] of 10700 M⁻¹ s⁻¹ and a Km [19] of 34.2 µM. For the same protein, the “cyclization yield within 5 min” value [19] was “butelase 1 achieved >95% cyclization yields within 5 min for all peptides tested”, the kcat [19] was 3.54 s⁻¹ and the kcat/Km [19] was 103000 M^-1 S^-1. It also gave a Cyclization yield (%) at 2 h [20] of over 95%, a Km [20] of 62 µM and a kcat [20] of 0.25 s⁻¹. It also gave a kcat/Km [20] of 4030 M⁻¹ s⁻¹, a Yield (%) of dimerization and cyclization, product Cyclo([..])2 [21] of 50% and a Yield (%) of cyclization [22] of 90%. The Cyclization yield (%) at 0.8 h [23] was over 95%, the Km [23] was 213 µM and the “conversion into cyclic kB1 within 6 min (RP-HPLC)” value [23] was “converted about 40% of kB1-NHV into cyclic kB1 within 6 min”. For the same protein, the kcat [23] was 2.28 s⁻¹, the kcat/Km [23] was 10700 M⁻¹ s⁻¹ and the Cyclization yield (%) at 3 h [24] was over 95%. For the same protein, the Km [24] was 129 µM, the kcat [24] was 0.38 s⁻¹ and the kcat/Km [24] was 2970 M⁻¹ s⁻¹. It also gave a Yield (%) of cyclization [25] of 95%, a Yield (%) of dimerization and cyclization, products Cyclo([..]), [..] [26] of 20% and a Cyclization yield (%) at 4 h [27] of under 5%. For the same protein, the Yield (%) of dimerization and cyclization, product Cyclo([..])2 [28] was 50%, the Cyclization yield (%) at 4 h [29] was under 10% and the “cyclization rate against kB1-NHV” value [29] was “at about a hundred-fold slower than kB1-NHV”.

B2: Jack bean legumain (Takara Bio) (protein)
chain: EVGTRWAVLVAGSNGYGNYRHQADVCHAYQLLIKGGVKEENIVVFMYDDIAYNAMNPRPGVIINHPQGPDVYAGVPKDYTGEDVTPENLYAVILGDKSKVKGGSGKVINSNPEDRIFIFYSDHGGPGVLGMPNAPFVYAMDFIDVLKKKHASGGYKEMVIYIEACESGSIFEGIMPKDLNIYVTTASNAQENSFGTYCPGMNPPPPEEYVTCLGDLYSVSWMEDSETHNLKRETVQQQYQSVRKRTSNSNSYRFGSHVMQYGDTNITAEKLYLYHGFDPATVNFPPHNGNLEAKMEVVNQRDAELLFMWQMYQRSNHQPEKKTHILEQITETVKHRNHLDGSVELIGVLLYGPGKSSSVLHSVRAPGLPLVDDWTCLKSMVRVFETHCGSLTQYGMKHMRAFGNVCNSGVSKASMEEACKAACGGYDAGLLYPSNTGYSA
B2 was tested, and the “hydrolysis or cyclization of kB1-NHV (MS)” value [23] was “commercial jack bean legumain was unable to cyclize kB1-NHV and generated only the linear form of kB1”.
